Our source for the activity values is patent publication US20080268507.

What all share (assay): cleavage_in_vitro
In data set [1] the test system is T1, Nt.CviPII (His+) (Chlorella virus NYs-1).
T1 sequence: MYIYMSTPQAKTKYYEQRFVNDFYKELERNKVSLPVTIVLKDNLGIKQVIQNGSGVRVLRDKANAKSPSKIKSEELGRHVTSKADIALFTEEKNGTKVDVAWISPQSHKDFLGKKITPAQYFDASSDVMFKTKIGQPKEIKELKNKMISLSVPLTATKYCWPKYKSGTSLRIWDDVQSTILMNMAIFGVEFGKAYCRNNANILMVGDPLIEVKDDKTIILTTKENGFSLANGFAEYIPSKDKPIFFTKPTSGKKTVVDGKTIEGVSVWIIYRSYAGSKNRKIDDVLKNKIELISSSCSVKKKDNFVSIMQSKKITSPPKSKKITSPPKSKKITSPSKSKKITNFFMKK
The conditions noted are these: NEBuffer 4 (10 mM Mg acetate), 37 C 1 h.

In data set [2] the test system is NPN297 (Nt.CviPII C-terminal truncation) (Chlorella virus NYs-1). The conditions noted are these: 37 C 1 h; same specificity as wild type.
Data set [3] concerns NPN329 (Nt.CviPII C-terminal truncation) (Chlorella virus NYs-1). As to conditions: 37 C 1 h; same specificity as wild type.

Consider pUC19 plasmid, for which the activity in data set [1] stood at 9410 units/mg; in data set [2] it was 2600 units/mg; in data set [3] it was 1400 units/mg.
